# Fewer inactive variants are shown than the library holds.
# B1: TPR 5TU (parent)
# chain: GGAUCUUCUCGAUCUAACAAAAAAGACAAAUCUGCCACAAAGCUUGAGAGCAUCUUCGGAUGCAGAGGCGGCAGCCUUCGGUGGCGCGAUAGCGCCAACGUUCUCAACUAUGACACGCAAAACGCGUGCUCCGUUGAAUGGAGUUUAUCAUG
# Variants of: B1
# Assay: polymerase ribozyme fitness, log enrichment relative to wild type (log ratio); higher = more active; in vitro selection for triplet polymerase activity
# Method in brief: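 Streptavidin-bead capture of gel-excised extended constructs, followed by RT-PCR, closed a single triplicate in vitro selection round. That round began by annealing PCR-built, transcribed mutant libraries of each subunit of a heterodimeric triplet polymerase ribozyme with a biotinylated primer, the partner subunit and triplets, then incubating them frozen at −7 °C. After Illumina sequencing of inputs and outputs, genotypes needed ≥10 input reads and ≥1 read per output. Fitness is the base-2 logarithm of genotype enrichment over wild-type enrichment, using inverse-variance-weighted replicate averages.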
row,Variant,polymerase ribozyme fitness (log ratio)
1,GGAUCUUCUCGAUCUAACAAAAAAGACAAAUCUGCCACAAAGCUUGAGAGCAUCUUGGCAUGCAGAGGCGGCAGCCUUCGGUGGCACGAUAGCGCCAACGUUCUCAACUAUGACACGCAAAACGCGUGCUCCGUUGAAUGGGGUUUAUCAUG [C57G G59C G86A A142G],-3.23
2,GGAUCUUCUCGAUCUAACAAAAAAGACAAAUCUGCCACAAAGCUUGAGAGCAUCUUGGGAUGCAGAGGCGGCAGCCUUCGGUGGUGCGAUAGCGCCAACGUUCUCAACUAUGACACUGAAAACGCGUGCUCCGUUGAAUGGAGUUUAUCAUG [C57G C85U G117U C118G],-1.51
3,GGAUCUUCUCGAUCUAACAAAAAAGACAAAUCUGCCACAAAGCUUGAGAGCAUCUUGGGAUGCAGAGGCGGCAGUCUUCGGUGGCGCGAUAGCGCCAACGUUCUCAAAUGUGACACGCAAAACGCGUGCUCCGUUGAAUGGAGUUUAUCAUG [C57G C75U C108A A110G],≤ -4.2
4,GGAUCUUCUCGAUCUAACAAAAAAGACAAAUCUGCCACAAAGCUUGAGAGCAUCUUGGGAUGCAGAGGCGGCAGCCUUCGGUGGCGCGAUAGCGCCAACGUUCUCAACUAUGACACGCAAAACGCGUGCUCCGUUGAAUGGAGUUUAUCGUG [C57G A150G],-1.23
5,GGAUCUUCUCGAUCUAACAAAAAAGACAAAUCUGCCACAAAGCUUGAGAGCAUCUUGGGAUGCAGAGGCGGCAGCCUUCGGUGGCGCGAUAGCGCAAACGUUCUCAACUAUGACACGCAAAACGCGUGCUCCGUUGAAGGGAGUUUAUCAUG [C57G C96A U139G],-0.754
6,GGAUCUUCUCGAUCUAACAAAAAAGACAAAUCUGCCACAAAGCUUGAGAGCAUCUUGGGAUGCAGAGGCGACAGCCUUCGGUGGCGCGAUAGCGCAAACGUUCUCAACUAUGACACGCAAAACGCGUGCUCCGUUGAAUGGAGUUAAUCAUG [C57G G71A C96A U146A],-4.05
7,GGAUCUUCUCGAUCUAACAAAAAAGACAAAUCUGCCACAAAGCUUGAGAGCAUCUUGGGAUGCAGAGGCGGCAGCCUUCGGUGGCGCGAUAGCGCCAACGUUCUCAACUAUGACACGCAAAAUGCGUGCUCCGUUGAAUGGAGUAUAUCAUG [C57G C123U U145A],-0.237
8,GGAUCUUCUCGAUCUAACAAAAAAGACAAAUCUGCCACAAAGCUUGAGAGCAUCUUGGGAUGCAGAGGCGGCAGCCUUCGGUGGCGCGAUAGCGCCAACGUUCUCAACUAUGAUACGCAAAACGCGUGCUCCGUUGAAUGGAGUUUAUCAUG [C57G C114U],-1.83
9,GGAUCUUCUCGAUCUAACAAAAAAGACAAAUCUGCCACAAAGCUUGAGAGCAUCUUGGGAUGCAGAGGCGGCAGCCUUCGGUGGCGCGAUAGCGCCAACGUUCUCAACUAUGAAACGCAAAACGCGUGCUCCGUUGAAUGGAGUUUAUCAUG [C57G C114A],-3.32
10,GGAUCUUCUCGAUCUAACAAAAAAGACAAAUCUGCCACAAAGCUUGAGAGCAUCUUGGGAUGCAGAGGCGGCACCCUUCGGUGGCGCGAUAGCGCCAACGUUCUCAACUAUGACACGCAAAACGCGUGCUCCGUUGAAUGGAGUUUAUCAUG [C57G G74C],≤ -4.2
11,GGAUCUUCUCGAUCUAACAAAAAAGACAAAUCUGCCACAAAGCUUGAGAGCAUCUUGGGAUGCAGAGGCGGCAGCCUUCGGUGGCGCGAUAGCGCCAACGUUCUCAACUAUGACACGCAUAACGCGUGCUCCGUUGAAUGGAGAUUAUCAUG [C57G A120U U144A],-1.24
12,GGAUCUUCUCGAUCUAACAAAAAAGACAAAUCUGCCACAAAGCUUGAGAGCAUCUUGAGAUGCAGAGGCGGCAGCCUUCGGUGGCGCGAUGGCGCCAACGUUCUCAACUAUGACACGCAAAACGCGUGCUCCGUUGAAUGGAGUUUAUCAUG [C57G G58A A91G],-3.24
13,GGAUCUUCUCGAUCUAACAAAAAAGACAAAUCUGCCACAAAGCUUGAGAGCAUCUUGGGAUGCAGAGGCGGCAGCCUUCGGUAGCGCGAUAGCGCCAACGUUCUCAACUAUGACACGCAAAACGCGUGCUCCGUUGAAUGGAGUUUAUCAUG [C57G G83A],-1.02
14,GGAUCUUCUCGAUCUAACAAAAAAGACAAAUCUGCCACAAAGCUUGAGAGCAUCUUGGGAUGCAGAGGCGGCAGCCUUCGGUUGCGCGAUAGCGCCAACGUUCUCAACUAUGACACGCAAAACGCGUGCUCCGUUGAAUGGAGUUUAUCAUG [C57G G83U],-0.732
15,GGAUCUUCUCGAUCUAACAAAAAAGACAAAUCUGCCACAAAGCUUGAGAGCAUCUUGGGAUGCAGAGGCGGCAGCCUUUGGUGGCGCGAUAGCGCCAACGUUCUCAACUAUGACACGCAAAACGCGUGCUCCGUUGAAUGGAGUUUAUCAUG [C57G C79U],-2.13
16,GGAUCUUCUCGAUCUAACAAAAAAGACAAAUCUGCCACAAAGCUUGAGAGCAUCUUGGUAUGCAGAGGCGGCAGCCUUCGGUGGUGCGAUAGCGCCAACGUUCUCAACUAUGACACGCAAAACGCGUGCUCCGUUGAAUGGAGUUUAUCAUG [C57G G59U C85U],-1.11
17,GGAUCUUCUCGAUCUAACAAAAAAGACAAAUCUGCCACAAAGCUUGAGAGCAUCUUGGGAUGCAGAGGCGGCAGCCUUCGGUGGCGCGAUAGCGCAAACGUUCUCAACUAUGACACGCAAAACGCGUGCUCCGUUGAAUGGAGUUUAUCAUG [C57G C96A],-0.472
18,GGAUCUUCUCGAUCUAACAAAAAAGACAAAUCUGCCACAAAGCUUGAGAGCAUCUUGGGAUGCAGAUGCGGCAGCCUUCGGUGGCGCGAUACCGCCAACGUUCUCCACUAUGACACGCAAAACGCGUGCUCCGUUGAAUGGAGUUUAUCAUG [C57G G67U G92C A106C],≤ -4.2
19,GGAUCUUCUCGAUCUAACAAAAAAGACAAAUCUGCCACAAAGCUUGAGAGCAUCUUGUGAUGCAGAGGCGGCAGCCUUCGGUGGCGCGAUAGCGCCAACGUUCUCAACUAUGACACGCAAAACGCGUGCUCCGUUGGAUGGAAUUUAUCAUG [C57G G58U A137G G143A],-2.87

row,Variant,polymerase ribozyme fitness (log ratio)
1,GGAUCUUCUCGAUCUAACAAAAAAGACAAAUCUGCCACAAAGCUUGAGAGCAUCUUGGGAUGCAGAGGCGGCAGCCUUCGGUGGUGCGAUAGCGCCAACGUUCUCAACUAUGACACGCAAAACGCGUGCUCCGUUGAAUGGAGUUUAUCAUG [C57G C85U],-1.28
2,GGAUCUUCUCGAUCUAACAAAAAAGACAAAUCUGCCACAAAGCUUGAGAGCAUCUUGGGAUGCAGACGCGGCAGCCUUCGGUGGCGCGAUAGCGCCAACGUUCUCAACUAUGACACGCAAAACGCGUGCUCCGUUGAAUGGAGUUUAUCAUG [C57G G67C],-4.16
3,GGAUCUUCUCGAUCUAACAAAAAAGACAAAUCUGCCACAAAGCUUGAGAGCAUCUUGGGAUGCAGAGGCGGCAGCCUUCAGUGACGCGAUAGCGCCAACGUUCUCAACUAUGACACGCAAAACGCGUGCUCCGUUGAAUGGAGUUUAUCAUG [C57G G80A G84A],-0.169
4,GGAUCUUCUCGAUCUAACAAAAAAGACAAAUCUGCCACAAAGCUUGAGAGCAUCUUGGGAUGCAGAGGCGGGAGCCUUUGGUGGCGCGAUAGCGCCAACGUUGUCAACUAUGACACGCAAAACGCGUGCUCCGUUGAAUGGAGUUUAUCAUG [C57G C72G C79U C103G],≤ -4.2
5,GGAUCUUCUCGAUCUAACAAAAAAGACAAAUCUGCCACAAAGCUUGAGAGCAUCUUGCGAUGCAGAGGCGGCAGCCUUCGGUGGCGCGAUAGCGCCAACGUUCUCAACUAUGACACGCAAAACGCGUGCUCCGUUGCAUGGAGUUUAUCAUG [C57G G58C A137C],-3.85
6,GGAUCUUCUCGAUCUAACAAAAAAGACAAAUCUGCCACAAAGCUUGAGAGCAUCUUGGGAUGCAGAGGCGGCAGCCUUCGGUGGCGCGAUAGCGCGAACGUUCUCAACUAUGACACGCAAAACGCGUGCUCCGUUGAAUGGAGUAUAUCAUG [C57G C96G U145A],-0.71
7,GGAUCUUCUCGAUCUAACAAAAAAGACAAAUCUGCCACAAAGCUUGAGAGCAUCUUGGGAUGCAGAGGCGGCAGCCUUCGGUGGCGCGAUAGCGUCAACGUUCUCAACUAUGACACGCAAAACGCGUGCUCCGUUGAAUGGAGUUUAUCAUG [C57G C95U],-1.18
8,GGAUCUUCUCGAUCUAACAAAAAAGACAAAUCUGCCACAAAGCUUGAGAGCAUCUUGGGAUGCACAGGCGGCAGCCUUCGGUGACGCGAUAGCGCCAACGUUCUCAACUAUGACACGCAAAACGCGUGCUCCGUUGAAAUGAGUUUAUCAUG [C57G G65C G84A U139A G140U],≤ -4.2
9,GGAUCUUCUCGAUCUAACAAAAAAGACAAAUCUGCCACAAAGCUUGAGAGCAUCUUGGGAUGCAAAGGCGGCAGCCUUCGGUGGCGCGAUAGCGCCAACGUUCUCAACUAUGACACGCAAAACGCGUGCUCCGCUGAAUGGAGUUUAUCAUG [C57G G65A U134C],-1.35
10,GGAUCUUCUCGAUCUAACAAAAAAGACAAAUCUGCCACAAAGCUUGAGAGCAUCUUGGGAUGCAGAGACGGCAGCCUUCGGUGUCGCGAUAGCGCCAACGUUCUCAACUAUGACACGCAAAACGCCUGCUCCGUGGAAUGGAGAUUAUCAUG [C57G G68A G84U G126C U135G U144A],≤ -4.2
11,GGAUCUUCUCGAUCUAACAAAAAAGACAAAUCUGCCACAAAGCUUGAGAGCAUCUUGGGAUGCAGAGGCGGCAGCCUUCGGUGGCGCGAUAGCGCCAACGUUCUCAACUAUGACACGCAAUACGCGUGCUCCGUCGAAUGGAGUUUAUCAUG [C57G A121U U135C],-2.26
12,GGAUCUUCUCGAUCUAACAAAAAAGACAAAUCUGCCACAAAGCUUGAGAGCAUCUUGGGAUGCAGAGUCGGCAGCCUUCGGUGGCGCGAUAGCUCCAACGUUCUCAACUAUGACAGGCAAAACGCGUGCUCCGUUGAAUGGAGUUUAUCAUG [C57G G68U G94U C116G],≤ -4.2
13,GGAUCUUCUCGAUCUAACAAAAAAGACAAAUCUGCCACAAAGCUUGAGAGCAUCUUGGGAUGCAGAGGCGGCAGCCUUCGGUGGCGCGAUAGCGCCAUCGUUCUCAACUAUGACACGCAAAACGCGUGCUCCGUUGAAUGGAGUUUAUCAUG [C57G A98U],-0.592
14,GGAUCUUCUCGAUCUAACAAAAAAGACAAAUCUGCCACAAAGCUUGAGAGCAUCUUGGGAUGCAGAGGCGGCAGCAUUCGGUGGCGCGAUAGCGUCAACGUUCUCAACUAUGACACGCAAAACGCGUGGUCCGUUGCAUGGAGGUUAUCAUG [C57G C76A C95U C129G A137C U144G],≤ -4.2
15,GGAUCUUCUCGAUCUAACAAAAAAGACAAAUCUGCCACAAAGCUUGAGAGCAUCUUGAGAUGCAGAGGCGGCAGCCUUCGGUGGCUCGAUAGCGCCAACGUUCUCAACUAUGACACGCAAAACGCGUGCUCCGUUGAAUGGAGUUUAUCAUG [C57G G58A G86U],-1.7
16,GGAUCUUCUCGAUCUAACAAAAAAGACAAAUCUGCCACAAAGCUUGAGAGCAUCUUGGGAUGCAGAGGCGGCAGCCUUCGGUCGUGCGAUAGCGCCAACGUUCUCAACUAUGACACGCGAAACGCGUGCUCCGUUGAAUGGAGUUUAUCAUG [C57G G83C C85U A119G],-1.44
17,GGAUCUUCUCGAUCUAACAAAAAAGACAAAUCUGCCACAAAGCUUGAGAGCAUCUUGGGAUGCAGAGGCGGCAGCCUUCGGUGGCGCGAUAGCGCCAACGUUCUCAACUAUGACAAGCAAAACGCGUGCUCCGUUGAAUGGAGUUUAUCAUG [C57G C116A],1.35
18,GGAUCUUCUCGAUCUAACAAAAAAGACAAAUCUGCCACAAAGCUUGAGAGCAUCUUGAGGUGCAGAGGCGGCAGCCUUCGGUGGCGCGAUAGCGCCAACGUUCUCAACUAUGACACGCAAAACGCGUGCUCCGUUGUAUGGAGUUUAUCAUG [C57G G58A A60G A137U],-4.15
19,GGAUCUUCUCGAUCUAACAAAAAAGACAAAUCUGCCACAAAGCUUGAGAGCAUCUUGGUAUGCCGAGGCGGCAGCCUUCGGUGGCGCGAUAGCGCCAACGUUGUCAACUAUGACAGGCAAAACGCGUGCUCCGUUGCAUGGAGUUUAUCAUG [C57G G59U A64C C103G C116G A137C],≤ -4.2

# — the RNAGym collection of RNA variant scans (doi:10.1073/pnas.2313332121)
